From patent publication US20140235490A1 come the findings set out here.

The experiment deals with Firefly luciferase fragment FFL (265-550) (Photinus pyralis) [luciferase: P08659]. Kind of experiment: cell-based or functional assay.
Sequence of Firefly luciferase fragment FFL (265-550) (Photinus pyralis) [luciferase: P08659] (P08659 265-550): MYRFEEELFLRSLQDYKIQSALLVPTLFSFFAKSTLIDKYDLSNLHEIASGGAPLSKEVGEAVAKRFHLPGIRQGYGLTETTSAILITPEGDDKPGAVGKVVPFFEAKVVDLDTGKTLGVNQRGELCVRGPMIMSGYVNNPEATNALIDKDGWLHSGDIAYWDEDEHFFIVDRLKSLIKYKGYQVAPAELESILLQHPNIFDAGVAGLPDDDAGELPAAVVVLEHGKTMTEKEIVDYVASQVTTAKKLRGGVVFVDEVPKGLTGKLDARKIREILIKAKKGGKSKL

Sequence of Firefly luciferase fragment FFL (1-478) (P08659 1-478): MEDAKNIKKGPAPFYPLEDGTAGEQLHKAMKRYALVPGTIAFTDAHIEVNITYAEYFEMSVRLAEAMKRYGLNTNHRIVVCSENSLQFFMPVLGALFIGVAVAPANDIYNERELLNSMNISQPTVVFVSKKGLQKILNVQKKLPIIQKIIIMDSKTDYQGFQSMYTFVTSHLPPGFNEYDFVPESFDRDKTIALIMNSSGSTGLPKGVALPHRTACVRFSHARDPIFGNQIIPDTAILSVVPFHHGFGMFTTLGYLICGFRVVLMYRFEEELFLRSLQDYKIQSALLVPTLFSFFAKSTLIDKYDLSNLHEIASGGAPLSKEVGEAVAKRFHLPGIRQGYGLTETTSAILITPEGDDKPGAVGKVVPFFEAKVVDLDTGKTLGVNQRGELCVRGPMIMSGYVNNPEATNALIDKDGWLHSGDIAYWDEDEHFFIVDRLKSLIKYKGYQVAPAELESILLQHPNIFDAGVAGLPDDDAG

Regarding “Firefly luciferase fragment FFL (1-478) (from UniProt P08659 1-478)”, the luciferase activity after recombination of the fragments was below 4%.
